From patent US20070292907

Tested on: bovine 19S complex (PA700)

USP14-ΔUBL (91-494) (purified recombinant, activation assay)
activity toward UbVS (anti-ubiquitin immunoblot): showed extremely low activity toward UbYS, both in the absence and presence of the 19S regulatory particle
